The values below come from a protein production outcome set (Wang et al. 2014).

A short description of this series: label from the status in PepcDB records.

For “MLLSKKSEYKTLSTVEHPQYIVFCDFDETYFPHTIDEQKQQDIYELEDYLEQKSKDGELIIGWVTGSSIESILDKMGRGKFRYFPHFIASDLGTEITYFSEHNFGQQDNKWNSRINEGFSKEKVEKLVKQLHENHNILLNPQTQLGKSRYKHNFYYQEQDEINDKKNLLAIEKICEEYGVSVNINRCNPLAGDPEDSYDVDFIPIGTGKNEIVTFMLEKYNLNTERAIAFGDSGNDVRMLQTVGNGYLLKNATQEAKNLHNLITDSEYSKGITNTLKKLIGFMRRK”, the protein production entry is “not failed”. To “MLLSPNLLAEGQSRYISDNVFLYLLNGPGTDYRILGSIEAGQPITLQGETQGDYSKIVDHKGREGWVQTNLISSTPSFREQVSTLTNELNEAKAKLAEVLNSTGNQTDEVAELKAQLAEAQTMLAKANQERENLKMAVDHSAQETQFALWREGGIIAAAGLVVGVILVYLPRPQRRNKKRWMLEHHHHHH” belongs “failed”. With “MLLSYLIYGLRNGFMVTLGGIAGFVVGAIAAFMAVPLVSGWVTDSGWRLTATVGAAVVLIALGHGLGTMIGRKVRHTVRIKPLHAVDRLIGGVVSVVVAALVMSMLAFSISSLGVPFVSQQLAESRVIRYIDDLTPTPVKSTMAQLRSTVIGDGIPKLIEGIGPVTPVPVPNESTDTPALNQAAESVLKIAGTAFECGQNQTGSGFVVSPGRVVTNAHVVAGVSQPVVEVPDGGALPGRVVYFDSQRDIAVLAVDGLQSSPLPLSADLPAGSSAAFAGYPHGGPFQSKPATVQGISTILVPDIYGNNPSPEQVYKLAGDVQPGNSGGPLLTMQGQVAGLIFAKTTTDAALGFALTMADLEPVAAQAPGLSNPVSAGQCTRK” the entry was “failed”; with “MLLSYVYKLNPSLKQAETMERWLHLLRLQYNFRVRERTEAYEQAKAPVMGNYCILQTQAECCPLTCSVSKGALYGNPWSTKGKKRSPLAQQDANLVDLKKERPWYGEICYHVLQQMLKQVDTAFVRFFKGLGKYPKTKRRGKLRSFTYPTGDVGFKGNKVRLPGLGWMRFFQSRPFPLGFKIRSTTVRKKANGFYISVLLQDDTVPQASASQQIQTALGVDLGIKKLISLSTGETIANPRFYKQMERKRSRLNWAANRKVLGSRRRQKAYQQIAQLEQKVTNQREDYQWKIAHNLVKRFDLIVFENLNVQGMMARCKPKQDESGKYLRNGQSAKSGLNKAIADAAWGSLKLKVKILSERAGVLVHEVKPNFSSQECSECGYISPTNRDKEKFLCEHCGHHADADIDAAKVILKRGLSELGINLDAVSGVPRKQDKSTSKEPVARQGISTALAVEPGNPHQVEERLSN”, “failed”.

Take “MLLTIFSILAILCLVLYFYCMVILHLKNKGVYHPMTHAVSDYGIGQNKSYFQLAGLANTFRNLFLILSLIFWKYSFSFKKEAVLLLILAIIGYAGVALFPTDIEGSKRTVKGIIHLLFAILQFTALAIFIFNVTEVLKPLNATLFLIASYIKIVVEVGLYGLVIALFLPFVKKYFGLFERLFLYSSNLYILLLCVMMIRY”: the protein production entry is recorded as “failed”.

“MLLVMGAHESGLDRARLQSLYEQLVATNEDETEKLAASGHSTGLVASEWARFLAPFDFGYRLVALQRESKRVAAALTRALYGIDTSGASEHDPLWAVEHRVLPVPVTDRLLFCEMRFLLVLALSRRLWMRLERVDPLGQENPFPRDAEIIERVEDLARQSRERLALLAERSPEALNAGKQEAHDCIEDLRTKETRAAEQVAGFAQALGDAALLEKVWHALVDEIAQNRQLNHALLQTLCQWVLMLIGADTEVPSSASCSDE”: the protein production entry was “not failed”. Consider “MLLYMRFTENFERAKKEALMSLEIALRKGEVDEDIIPLLKKINSIENYFTTSSCSGRISVMEMPHFGDKVNAKWLGKWHREVSLYEVLEAIKKHRSGQLWFLVRSPILHVGAKTLEDAVKLVNLAVSCGFKYSNIKSISNKKLIVEIRSTERMDVLLGENGEIFVGEEYLNKIVEIANDQMRRFKEKLKRLESKINALNR”, for which the protein production result is “not failed”. To “MLMLEREKLARLIKKRSLKVADEPVFKLSSGKLSRYYVDLKQITFDPEGDYLIGKAMYELVKEFNPDACGGLTLGADPIAYAIAFVSLMDSNPIKPFVVRKEPKGHGMKRQIEGLLNPGERVAVLEDVVTTGSSALKAVKACREYGLEVIGVFAVVDREEGGRENIEKEGIPLYSLFKLSELL” belongs “not failed”. “MLNDQEVLSMSSVSLSPLFRRSIGFDRLNDLFDYAMQSETPNYPPYNIEKDGENNYRILIASAGFDQDELRIHLENQVLTISGQPDSEQVDKNIEYLHKGIARRAFKLSLRLDEHIEVQQADYENGLLKIELQRIIPEEKMPRQIPIGQSKSIKNIESSKIVNS”: the protein production entry is “failed”. With “MLNEIVVFFSILVSSWNIYNSALSFYGLTWRVNQKIEYSDKTFSILVPAKNEEKVLGRLLDRLINQEYDKSKYEIIVVEDGSTDRTFQICKNYEENYDNVRCVKLDKSNVPNGKSRALNYAMKLAKFDIIGVFDADTFPRLDVLSYVSGSFDSDNVVAVQGKLIPINVRESIIARFASLEELFNEYSIGGRARFGLFVPLEGTCTFVKKSIIEEMGGWNEYSLTEDLDLSVKLTSAGYKIMYNPNVVAWREVASSLRWLIKQRLRWYRGHFEISLSMPKKIDPRIFDGILLIGTPIFMLMNLVNYSLVLIYQTPLFVVTMVIVSTATLLSFITAVGISRKHLIEYQYSILSLIYMNFVMLLNVTAVFLEIVRVPRVWIKTERSGKISVPEV” the entry was “failed”; with “MLNHPTHERLIELGLTGMAKAFEEQRRSPDLEALPFEDRIGLLVDREAAERDTRRLTTRLKIAALRQTACVEDVDLRTPRGIDRAVFAKLVEGRWIDRHENLLVTGATGLGKSWLACALGHKACRDNRSVLYHRVPRLFEALALARGDGRYARLLKSLGRAQLLILDDWGLSVLTAAERRDLLEILEDRHGRASTIVTSQLPVDTWHGAIGDPTVADAILDRLVHNAHRLQLTGESMRKRSAKTITLDGQPEH”, “failed”. With “MLNKLMWLTGKAQEDWIEKILHLRQKIWPDYQRIKNDTLFKLYSHYPLYQWLSHYNGEVVAVINSLPVALDQSLDNLPQEGLNWVLSHLESTTPLTQSNYLAAVSVTVNPAYQRLGLSKLLLNRLKASAQEAQYKALIVPARPSQKENYPLISLEDYLKWKRVDNTIFDPWLRVHAQLGGKIAYPCQRSRVITANVAQWEQWLGHPLLQTGQYLVKGGLNPITINKEKDIGIYIEPNVWVIHDL” the entry was “failed”; with “MLNNFLNLELLNISLSYPFLFLITTAIVLLLCSGFWKFHRSFYIGISSLSLIVSAFLILNNANAQGLEAKAFLATLNNDIVSFYASLVILCFSFLYLLMQKEENQGEFYALFLFMIASLLLMVSSSNLVLIFIGLESSSLALYTLIAMRGSDNAISSAIKYFSIAAVGAGFFVMAVAFIYLKTGTLDLSANLALKNEFQKDPMLLGAGVMIFVLCAIKLSLAPFHFWLKDVYYAAHTNLVAFISVVPKVAMLVVVIRLFDFLNNTGFEYIIIVLAIFSMLIGAFAALSQNNIKKMFAYSSVVHSSLVLIACIPLLKEQNFDGILLAIFGYWTLFAFANYAVFMILSNYENNSYESLNGLLVKKPLIAFCLSISVLSLAGIPPFGVFWGKFMILNTVILNGYWYLALFVALSSVIMLYAYLKILIHVLFMKNDRVYNIKFSFIQNFILAFCVCVSIFAILLML”, “failed”. To “MLNPEQVKRFLETAKQDPLYPAFLLALGTGLRRGEILGLRWQDLDLQKGILQVRQSLIRTREGLKFEEPKTEKSRRQIPLPPSVVAALKRHKAWVNQNKLILGPDYEDHDLVFPVENGRPRDPKGFAEYFNRLLDKAGLPHIRLHDLRHTHATLLLLEGVHPKVVQERLGHSTVSITLDIYSHILPGLQEKAAERIDGLLQPKENPSPKEGTIKLEHHHHHH” belongs “not failed”; to “MLNRGGFTYPGQRWKHCINTLLTGGVLLIVSASAYADSNALGYKIPGYELVYDAPMETTLTTPDLRPSDAVWISLFDNAQHTIELGQFYVANQAGTRLDSVLQHLRAAGERGVRIRLLLEEKGLKISTQDTLDQLKTIPNLELRVIPFERLSGGILHAKYLLVDGKQAYMGSQNLDWRALEHIHETGLLIDDPRVVNQISTIFEQDWQAQARLSNGETVPPLPASTDAVDRSGNYLVASPKAFNPAGVMDSEEELPRLLAEAQQQVRIQVMDYVPLSYGPDKTRPFYAVIDNAIRTAAARGVQVELMVSEWSTKMPNIAYLKSLALLPNIQIKTVSIPQVSSGFIPFARVIHSKIMTIDGTKTWIGTSNWSGGYLDNSRNLEMVIQNPAMAQRVDLLYTQLWNSAYAHPLRIDYDYPQPNPGGVKEKEQENTASSTTGGTVTAP”, “failed”; to “MLNYLIFFPLISAFVVLLLNRGGVKVFSVVVSFMILALNLDTFADFLQGVSFDYNLSFKILKFFSFHVGVDSIALVLMLLSSLMIFLSFLFLKLEQKALISCIFFLEFAIMGLFSAKDGLLFYIFWEFSLLPLLYIMGVYGKDFRAGVKFFIYAFAGSILMLVALIYQAYLNYQLLNIFTFDLEIWKNNASAANFTEQLLLFGAFFIAFAIKAPLFPLHTWAPKVYANSPILVSVMLVVFKMAPFGFLLFCLPLFPDASVYFMPLIVALCIVSIVYNALIAYRAENIKELIAYSSISHLGVMILGIFSLNALGISGAVFYMFAHGIVTGTLFLMVELLYQRYHTYDISFYHSLAKKAPLFSIFFMLILLASVSLPLTVSFVGEFLILLGIAKINLFYALLAGLVIILGAIYMFAVFRKIFFMQKQSFIEGFSLRFREIVALVCIVVMIFGLGLMPNILLKPIQKDVDNLIKTMNIRAVEQNTLDFLSKIGEANVK”, “failed”. Take “MLPIASGNDDRNLIRYVDGGRFDEIMLTGDLTGLSSFLTNAGPNARDDFDLTVLMRAAEAGNLMVVARLLDLGANPRLTNPRGVTALHIAAIAGDDGIVECLIDAGAEVDAVDDQGRTPLWNAAAHHLPDSAVVDVLLRAGANVNLRDCNGVSPEDML”: the protein production entry is listed as “failed”. Consider “MLPSPSSSSAPTKRIDPSELKRVFQMFDKNGDGRITKEELNDSLENLGIYIPDKDLTQMIHKIDANGDGCVDIDEFESLYSSIVDEHHNDGETEEEDMKDAFNVFDQDGDGFITVEELKSVMASLGLKQGKTLDGCKKMIMQVDADGDGRVNYKEFLQMMKGGGFSSSN”, for which the protein production result is reported as “not failed”. To “MLQNRLNKARSHAEKHDVDAIVFFNMSNVRYLSGFTGSDGAVVLGRDASWFLTDSRYTTQASRQVVGLPTVEYRIKLDGITELVREQGFRRIGFESEHTAFAVYESLRQKLPKTELVPIGEELAQLRLIKDPSECELLSRVARLASEALLSILPLVKPGAVERELALELEFAMRRAGAENASFDFIVASGERGSLPHGRASDKALAAGELVTIDFGARYEGYCSDETVTVAVGVPDERQCQIYGIVKEAHDRAIAAVRPGAELREIDRIARGYIEEQGYGAFFGHGLGHGVGLDVHEKPVVSPRGEGVAAVGMVFTIEPGIYIPGWGGVRIEDTVIVTEDGCRPITMIPKELMIL” belongs “failed”; to “MLRFAVLGHPVAHSLSPAMHAFALESLGLEGSYEAWDTPLEALPGRLKEVRRAFRGVNLTLPLKEAALAHLDWVSPEAQRIGAVNTVLQVEGRLFGFNTDAPGFLEALKAGGIPLKGPALVLGAGGAGRAVAFALREAGLEVWVWNRTPQRALALAEEFGLRAVPLEKAREARLLVNATRVGLEDPSASPLPAELFPEEGAAVDLVYRPLWTRFLREAKAKGLKVQTGLPMLAWQGALAFRLWTGLLPDPSGMEEAARRALGV”, “not failed”. Take “MLRFGFAAVLLVLAGCSAPMGPEALGPGSYQAAPDPGPFLTPADAQRAFPAVVARVEPVAEAICRERTRGVPCDFQIAVDARPGLDPNAFQTLDDYGRPVIGLTLSLISDARNVDELAFVVGHETAHHILGHIPRQRETALTGAVLAGVLAQMGGADAQTIRSVQEFGANVGARSYSKNFELEADGLGTEIAIRAGYDPVHGAQFFTRLPDPGDTFLGSHPPNAQRIAAVRRAAESIGYVSAWLEHHHHHH”: the protein production entry is “failed”.
